System: MS2 coat protein
Assay: apparent KD of MS2 coat protein; designed switch direction (-1 OFF switch, 1 ON switch): -1; higher = weaker reporter binding
Outline: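 The buffer was Tris-HCl pH 7.5 with KCl, MgCl2, BSA, DTT, tRNA and Tween-20. In it, SNAP-549-labelled MS2 coat protein was titrated in doubling steps from 0.7 or 1.5 nM to 3 µM over chip-bound RNA switches transcribed by stalled E. coli RNA polymerase on Illumina chips. Apparent KD is the per-design median over clusters of curve fits to normalised fluorescence.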

[1] = input ligand: microRNA oligo, concentration not stated
[2] = Eterna round: R95, input ligand: FMN 200 uM
[3] = Eterna round: R95, input ligand: microRNA oligo, concentration not stated
[4] = Eterna round: R95, input ligand: none

Row | Sequence | apparent KD of MS2 coat protein (input ligand: FMN 200 uM) [nM] | apparent KD of MS2 coat protein [1] [nM] | apparent KD of MS2 coat protein (input ligand: none) [nM] | apparent KD of MS2 coat protein [2] [nM] | apparent KD of MS2 coat protein [3] [nM] | apparent KD of MS2 coat protein [4] [nM]
1 | GUCGUGCAGCUUUGCUGUACGAGUACAUGAGGAUCACCCAUGUAGGAUAUGGUACGCUUUGCGUGCUAGAAGGAUAUGUGUAGG [salish99_ExNG3_r04_501] (Eterna round: R96, puzzle: Exclusion NG 3) | 49.3 | 41.7 | 44.3 |  |  | 
2 | GCACGGAGUGUAGGAUAUCUGUGCGAUUAGCUCAGAGAAGGACACAUGAGGAUCACCCAUGUUACCUCAAUUAGCCUUCCGUGC [Eli exng1 - 032] (Eterna round: R96, puzzle: Exclusion NG 1) | 30.4 | 17 | 19 |  |  | 
3 | AGUACUAACACGAGAGUGUUAGUACUAUAAGCUUGUGUUACAUGAGGAUCACCCAUGUCCUCAUAAGCUCGUCUUAA [Mat - Sensor v3 - Turn-off var 2 - D64] (puzzle: Sensor v3, turn-off variant 2) |  |  |  | 33.3 | 185 | 35.8
4 | GGCAAUAUGUAGGAUAUCGUAUUGGAAACAAUACGAGAAGGGCAAACAUGAGGAUCACCCAUGUUCCUUAAGCC [Mat - Exclusion 6 - Eli Mod - D68] (puzzle: Exclusion 6) |  |  |  | 18.6 | 17.6 | 16.6
5 | GGAAUGUAAGGAUAUCCGAAAGGCGAGCGAAAGCGAGCAAAGGAGAAGGUACAUGAGGAUCACCCAUGUAAGGG [AK-MS2ROC-r4-exclusion4-11.3] (Eterna round: R97, puzzle: Exclusion 4) | 163 |  | 513 |  |  | 
6 | ACCAUGUAAGGAUAUGGUGGCUGUGAACAGGCCUGAUAAAUCUAGAAGGUACAUGAGGAUCACCCAUGUGAUGA [Eternabot (L2) Solution 84] (Eterna round: R97, puzzle: Exclusion 4) | 54 |  | 32.7 |  |  | 
7 | AAUUAGUGAGGAUAUACUAACAGUGAUAGUAGAUAGUGGAUGUAGAAGGCACAUGAGGAUCACCCAUGUUAUAA [EX4 #51] (Eterna round: R97, puzzle: Exclusion 4) | 39.1 |  | 33.5 |  |  | 
8 | GUAGAGUCAGGAUAUACGAGAUCGAUAGAUCGGCGAUCCAAACAUGAGGAUCACCCAUGUAGAAGGGACUCUAC [Mat - Exclusion 2 - Eli Mod - D4] (Eterna round: R97, puzzle: Exclusion 2) | 1160 |  | 41.6 |  |  | 
9 | CCGUCAUCAGGAUAUCCACAUCUCUACAUGAGGAUCACCCAUGUAAGCUUGGGUAAUAGCGGAGAAGGGAUAGACU [Eternabot (Original) Solution 20] (Eterna round: R97, puzzle: Exclusion 5) | 78.2 |  | 57.5 |  |  | 
10 | GACUGCCGAGGAUAUACAUGAGGAUCACCCAUGUGCUUCAGUAUCGAAAGAUGCAUGGGUAGAAGGCGGUAGUC [LRO-Excl3-10] (Eterna round: R96, puzzle: Exclusion 3) | 912 | 627 | 1410 |  |  | 
11 | UGUCUUGCAGGAUAUACAUGAGGAUCACCCAUGUAUAUUGAUGAGGGAGAUCUACUAGGUAGAAGGGUAAGAGA [Eternabot (L2) Solution 59] (Eterna round: R97, puzzle: Exclusion 3) | 45 |  | 17.8 |  |  | 
12 | CUAUUGGCAGGAUAUGCUUUUUUAGACAUGAGGAUCACCCAUGUGAUGAAUUUUGGGUUUGCAGAAGGGCCUGAGU [JR_E5_Sub038] (puzzle: Exclusion 5) |  |  |  |  | 56.6 | 
13 | UGAGAGAGUAUAGGAUAUUAGAGGAGAAUGGUGAUAGAGACAUGAGGAUCACCCAUGUGAGGAGAUAAGAAGGGUAAGAACUCA [AK ExNG2-V2-4] (Eterna round: R96, puzzle: Exclusion NG 2) | 452 | 292 | 435 |  |  | 
14 | GGUAGUAUGAGUAGUCCUCAUUGAAGAGAUUGGUAAGAUACAUGAGGAUCACCCAUGUUUGAACAAGCUUUUGCUCU [JR_Sv3TOV2_Sub007] (puzzle: Sensor v3, turn-off variant 2) |  |  |  | 87.1 | 25.9 | 82.8
15 | CUAGCGAUUGUAGGAUAUCGGACUGUUUCAGUCUGAGAAGGACAUGAGGAUCACCCAUGUGAAGCAACGUGAGUUGCACGCUAG [JL ENG1 3.83] (Eterna round: R96, puzzle: Exclusion NG 1) | 47.9 | 13.8 | 22 |  |  | 
16 | GUGUAGAUAGGAUAUGCAUGAGUCUAGCGAAGCUAGGCUCUACAUGAGGAUCACCCAUGUAGAAGGGUCUACAC [Dot plot directed A v13] (puzzle: Exclusion 2) |  |  |  |  | 18.6 | 
17 | GCGACGCUACAUGAGGAUCACCCAUGUCCUCACAUGAGAUGGUAGGAUAUUAUAUAUACAUUGUGUGAGAAGGAUCAUCGCCCA [Eternabot solution 2] (Eterna round: R96, puzzle: Exclusion NG 3) | 351 | 74.8 | 121 |  |  | 

Row | Sequence | apparent KD of MS2 coat protein (input ligand: FMN 200 uM) [nM] | apparent KD of MS2 coat protein [1] [nM] | apparent KD of MS2 coat protein (input ligand: none) [nM] | apparent KD of MS2 coat protein [2] [nM] | apparent KD of MS2 coat protein [3] [nM] | apparent KD of MS2 coat protein [4] [nM]
18 | AGAAAUGCCCAUGGCCACAAGCUUUCUGCUUGUCUUACUACAUGAGGAUCACCCAUGUAACAUGGGCUCCUGAUAAU [Enzainge] (puzzle: Sensor v3, turn-off variant 2) |  |  |  | 13.2 | 10.4 | 11.4
19 | CCAAGCUUUUUCAUUAACAACAUGAGGAUCACCCAUGUGUAAGCAAUUAUGUUUGGGCUCUUUAGUGCUCGUCUUAU [JR_STOV1_Sub042] (Eterna round: R97, puzzle: Sensor, turn-off variant 1) | 17.4 |  | 16.7 |  |  | 
20 | UUUUUAUAUGAAGGAUAUACUUAACAUGAGGAUCACCCAUGUGGUGUUGUGAGUGAGUGAGUUUAGUAGAAGGUCAAGGAUUUU [JMF's solution 35] (Eterna round: R96, puzzle: Exclusion NG 2) | 598 | 456 | 161 |  |  | 
21 | AUUAUGUUAGGAUAUGCUUAUGGUGGAUAGUCCAAUGUGGUGCAGAAGGGACAUGAGGAUCACCCAUGUACUGA [EX4 #29] (Eterna round: R97, puzzle: Exclusion 4) | 70.5 |  | 58.6 |  |  | 
22 | AAGUAACAUGAGGAUCACCCAUGUUAGGAUAUCUCGGCCACAGGAUCCCUGUGAAGCCAGAGAAGGAGCGGGUG [Ceraso] (Eterna round: R97, puzzle: Exclusion 1) | 169 |  | 202 |  |  | 
23 | CUCAAACAUGAGGAUCACCCAUGUCAGGAUAUGAUACUAUGUACUUCGGUACAUAGUAUCAGAAGGGAUAUGAA [Ex1-3: 66] (puzzle: Exclusion 1) |  |  |  |  | 69.3 | 
24 | CUUUUGUGAGGAUAUUUGUAGUAAAUAAAUAAAAUUACUACUGAGAAGGCACAUGAGGAUCACCCAUGUUCCUC [salish99_ex4_r3_042] (puzzle: Exclusion 4) |  |  |  |  | 27.7 | 
25 | AACAAGGUAGGAUAUACAUGAGGAUCACCCAUGUCCCACCCGUUACCUAUGACCAUAUGUAGAAGGACCAAUAA [Exy#6] (Eterna round: R97, puzzle: Exclusion 3) | 16.7 |  | 17.8 |  |  | 
26 | GUAAUUAAUGUAGGAUAUGCAAGGCGAACCUAAGCAGAAGGACAUGAGGAUCACCCAUGUAUUGCGGUCUGCGUUCAGUUCGCU [salish99_ExNG1_r4_011] (Eterna round: R96, puzzle: Exclusion NG 1) | 9.41 | 6.39 | 10.2 |  |  | 
27 | GUCAGCUCGUCAGGAUAUGCACAUGAGGAUCACCCAUGUAAGAUCAAGCUGCUUCGGCAGCAAGUGCAGAAGGGACGAGCUGAC [ENG2/9-B1] (Eterna round: R96, puzzle: Exclusion NG 2) | 161 | 229 | 140 |  |  | 
28 | CCAGAUGCAGGAUAUGUAAAAUUUGACAUGAGGAUCACCCAUGUAGAUCCUGAAUUUCCUGCAGAAGGGCAUCUGG [Mat - Exclusion 5 - Eli Mod - D20] (Eterna round: R97, puzzle: Exclusion 5) | 288 |  | 105 |  |  | 
29 | UUCAGUCUAGAGGAUAUGCUGGAUUAAUAUCUGGCAGAAGGCUGGACAUGAGGAUCACCCAUGUAAAUACUACC [Omei Ex6 A5] (Eterna round: R97, puzzle: Exclusion 6) | 356 |  | 68.3 |  |  | 
30 | AAAAUGGCAGGAUAUACAUGAGGAUCACCCAUGUUCGUCUUUACAUGUAAAAUGCUCUGUAGAAGGGCCUCGAA [Quised] (Eterna round: R97, puzzle: Exclusion 3) | 47.1 |  | 21.9 |  |  | 
31 | CGUCCGGCUUCCCUUCAAGACAUGAGGAUCACCCAUGUUUUUGUUUUUGCGAGCUUUUUGCUUUUUGCUCGUCUUGU [Even Better Attempt 2] (puzzle: Sensor v3, turn-off variant 1) |  |  |  | 20.2 | 13 | 18.7
32 | AAGGUGUUAGGAUAUCGAAGGUUGUGGCAGGCGGGAAUUUGCGAGAAGGAACAUGAGGAUCACCCAUGUAAAAU [JR_Exclu4_Sub042] (puzzle: Exclusion 4) |  |  |  |  | 25 | 
33 | UCCUAACAUGAGGAUCACCCAUGUCAGGAUAUCUACGUCAGAACCACGUAUGUAGGCGAGAGAAGGGACAGAGG [EX1 C.14] (Eterna round: R97, puzzle: Exclusion 1) | 21 |  | 17.4 |  |  | 
34 | AAUGUUUGAUACCUUUAAUACAUGAGGAUCACCCAUGUUAUCGAGGAUAUGUAGAUGAAAUGAGAACAGAAGGCGAAGUAAGAG [JR_ExcNG3_Sub098] (Eterna round: R96, puzzle: Exclusion NG 3) | 19.5 | 9.73 | 24.4 |  |  | 

Source: the supplement of paper PMC9170038
